Results on 83 variants are retold here after the RNAGym collection of RNA variant scans (doi:10.1093/molbev/msab373).

The labels stand for the following.
B1: Azoarcus group I ribozyme (parent)
chain: GUGCCUUGCGCCGGGAAACCACGCAAGGGAUGGUGUCAAAUUCGGCGAAACCUAAGCGCCCGCCCGGGCGUAUGGCAACGCCGAGCCAAGCUUCGGCGCCUGCGCCGAUGAAGGUGUAGAGACUAGACGGCACCCACCUAAGGCAAACGCUAUGGUGAAGGCAUAGUCCAGGGAGUGGCGAAAGUCACACAAACCGG

Variants of B1 are the subject of this series. As to the kind of experiment: reverse-splicing fitness (ratio to wild type); higher = more active; in vitro selection; Mg2+ level not given. An outline of the steps:
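An in vitro group I ribozyme library with randomized positions was T7-transcribed and gel-purified. In triplicate, 10 pmol RNA in EPPS pH 7.5 was reacted with 50 pmoles of a 30-nt RNA substrate for 1 h at 37 °C across several added MgCl2 levels (1–48 mM), then stopped with EDTA. Products were reverse transcribed from a substrate-complementary primer, PCR-amplified and sequenced (HiSeq 4000). Fitness is a variant's read proportion after selection over that before, normalised to wild type.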
A111C A120C A145G C150A C169U U176G: the reverse-splicing fitness was found to be 0.00728. On to A145C C150U C169U U176C, for which the reverse-splicing fitness stood at 0.0741. As for C82U A111U A120G A145C C150G C169G, the reverse-splicing fitness turned out to be 0.0068. In the case of C82U A111C A120C A145U C150A C169G U176G, the reverse-splicing fitness was found to be 0.00587. Regarding A145C C150A U176A, the reverse-splicing fitness is 0.217. Consider C82U A111G A120U A145U C150G C169G U176G, for which the reverse-splicing fitness worked out at 0.00175. In the case of C82G A120G C150G C169G U176G, the reverse-splicing fitness was found to be 0.00466. Consider C82U A111C A120G A145U C169U U176C, for which the reverse-splicing fitness was found to be 0.0112. With C82G A111U A120U A145G C169U U176G, the reverse-splicing fitness amounted to 0.00203. C82G A111U C150A C169A U176G: the reverse-splicing fitness came out at 0.00814. As to C82A A111C A120G A145U C150A C169G U176C, the reverse-splicing fitness worked out at 0.0156. As for C82A A111G A120U C150A C169G U176C, the reverse-splicing fitness amounted to 0.00412.

In the case of C82U A145C C169A U176A, the reverse-splicing fitness was determined as 0.00806.

In the case of C82G A145C C150G C169U, the reverse-splicing fitness worked out at 0.01. The same measure for A120C A145C C150U C169A U176C: 0.008; for C82U A111C A120G A145C C150U C169A U176A: 0.00813. For A111U A145G C150U U176A, the reverse-splicing fitness was found to be 0.591. Take C82A A111G A120G A145C C150U C169A U176C: the reverse-splicing fitness was determined as 0.00635.

For C82A A111G A120G A145U C150G C169G U176C, the reverse-splicing fitness amounted to 0.00461. With A111C A120U A145C C169U U176A the figure was 0.0108; with A111C A120G A145G C150U C169A U176G, 0.00548; with A111U A120G A145U C150G C169A U176C, 0.0105. Turning to C82A A111U A145C C150U C169G U176A, the reverse-splicing fitness was 0.0233.

Take C82A A111U A120C C150A C169U U176A: the reverse-splicing fitness came out at 0.0186. As to A111U A145G C169A U176G, the reverse-splicing fitness stood at 0.00593. As to C82U A111C A120U A145U C150G C169U U176A, the reverse-splicing fitness was determined as 0.00227. On to C82U A111U A120C A145U C169A U176G, for which the reverse-splicing fitness was 0.00442. In the case of C82G A120C A145C C169U U176G, the reverse-splicing fitness was found to be 0.00352. The same measure for C82A A111U A145C C150U C169A U176C: 0.00736.

As to C82G A111C A145U C169U U176A, the reverse-splicing fitness was 0.0168. As for A120U C150G C169G U176G, the reverse-splicing fitness was 0.00248. For C82U A111U A120C A145C C150G U176C, the reverse-splicing fitness came to 0.00663. With C82A A111G A120C A145C C169A U176G the figure was 0.0053. The same measure for C82G A145U C150U C169A U176A: 0.0114; for C82G A111U A120U C150A C169A: 0.0047; for C82U A111C A120G A145C C150A C169U U176A: 0.0166.

Take A111U A120G C169A U176C: the reverse-splicing fitness is 0.0386.

On to C82U A111U A120C A145U U176C, for which the reverse-splicing fitness is 0.0165. In the case of C82A A111G A120G C150A, the reverse-splicing fitness was found to be 0.0105. A111G A120C A145G C169G: the reverse-splicing fitness was 0.0121. As for A111C A145U C150U C169G, the reverse-splicing fitness was determined as 0.0433. The same measure for C82A A120G A145U C150U U176C: 0.0158. C82A A111U A120U A145C C150G C169G U176C: the reverse-splicing fitness is 0.0024. A111G A120U A145U U176G: the reverse-splicing fitness was 0.15. With C82G U176A, the reverse-splicing fitness is 0.364. A111C A145C C169G U176C: the reverse-splicing fitness came out at 0.0318. The same measure for C82U A111C A120G A145G C150U C169G U176A: 0.0112; for C82A A111G A145C C150A: 0.018; for C82A A111G A145U C150G C169U U176C: 0.0117. Regarding A111G A120G A145G C150U U176A, the reverse-splicing fitness worked out at 0.0693. In the case of C82U A111U A120G C150U C169U U176G, the reverse-splicing fitness stood at 0.00647. As for C82G A111U A120C C169U U176G, the reverse-splicing fitness was 0.00561. On to C82A A111G A120G A145G C169G U176A, for which the reverse-splicing fitness was determined as 0.0204. C82U A111C A145G C150G C169G U176G: the reverse-splicing fitness turned out to be 0.00571. As to C82U A111C A120G A145C C150G U176C, the reverse-splicing fitness was determined as 0.0106. As for A120C A145G C150U, the reverse-splicing fitness amounted to 0.781. For C82A A111C A120G A145C C169G U176A, the reverse-splicing fitness turned out to be 0.0239. On to A145G C150U C169G U176G, for which the reverse-splicing fitness turned out to be 0.00685. For C82U A111G A120G A145G C150G C169G U176A, the reverse-splicing fitness amounted to 0.00945. On to A111U A120C A145U U176G, for which the reverse-splicing fitness stood at 0.0572. For C82G A111C A120U A145U C169G, the reverse-splicing fitness came out at 0.00373.

For A120G A145C C169G, the reverse-splicing fitness worked out at 0.614. For C82G A120U A145U C150A, the reverse-splicing fitness was 0.0151.

Take A111C A145C C150G U176A: the reverse-splicing fitness was determined as 0.0871.

As to C82G A111U A120G A145G C150U C169U U176A, the reverse-splicing fitness stood at 0.0169. For the variant C82A A111U A120C A145G C150U C169G U176A, the reverse-splicing fitness worked out at 0.0138. For the variant C82G A111C A120G C150A C169G U176A, the reverse-splicing fitness turned out to be 0.0195. In the case of C82A A111C A145G C169U U176C, the reverse-splicing fitness amounted to 0.0149.

In the case of A120G A145G C150G C169G U176A, the reverse-splicing fitness is 0.0179. Consider C82G A111U A120U A145G C150G U176C, for which the reverse-splicing fitness was 0.00861.

As for C82G A111G A120U A145C C150G U176A, the reverse-splicing fitness turned out to be 0.00327. For C82A A111U A145U U176C, the reverse-splicing fitness is 0.134. As for C82G A111U A120C A145C C150G C169A U176C, the reverse-splicing fitness came out at 0.00917. The same measure for C82U A111U A120U A145G C150A C169U U176G: 0.00228. Regarding A111U A120U A145C U176A, the reverse-splicing fitness is 0.194. For A111U C150U U176A, the reverse-splicing fitness turned out to be 0.6. The same measure for A111C A120C A145G C169G U176G: 0.00588. Take A111U C169G U176A: the reverse-splicing fitness was 0.02. Turning to C82U A111C A120C A145G C150G C169U U176A, the reverse-splicing fitness was found to be 0.0111.

With C82A A111C A120C A145G C150G C169A U176C, the reverse-splicing fitness came out at 0.0121. Consider A111U A120C A145C C150U C169A U176C, for which the reverse-splicing fitness was determined as 0.00539. Consider C82G A111G A120U C150U C169U U176C, for which the reverse-splicing fitness worked out at 0.0051. Turning to C82A A111G A120G A145G C150G C169G, the reverse-splicing fitness is 0.00754.
